Experimental data from patent publication US20250154277A1 (CONCEPT TO MEDICINE BIOTECH, published 2025).
Several values for one entry are separate records, joined by “and”; a condition that tells them apart may be missing. Equal values may be shown once.

B1: 159D5 chimeric antibody (antibody, V domains shown)
VH: DVQLVESGGGLVQPGGSRKLSCTASGFTFSNFGMHWVRQAPETGLEWVAYISSGSSTFYYADSVKGRFTISRDNPKNTLFLQMTSLRSEDTAMYFCARSPAYYRYGLDYWGQGTTLTVSS
VL: DIVLTQSPASLAVSLGQRATISCRASQSVSSSTFSYMHWYQQKPGQPPKLLIKSSSNLESGVPARFSGSGSGTDFTLNIHPVEEEDTATYYCQHSWEIPYTFGGGTKLEIK
notes: chimeric mAb
B2: 267B5 chimeric antibody (antibody, V domains shown)
VH: DVQFQESGPGLVKPSQSLSLTCSVTGYSITSSYYWNWIRQFPGDKLEWMGYISYDGSNNYNPSLKNRISITRDTSKKQFFLKLNSVTTEDTATYYCARSWDGGYAMDNWGQGTSVTVSS
VL: SIVMTQTPKFLLVSAGDRVTITCKASQSVSNDVAWYQQKPGQSPKLLIYFASNRYTGVPDRFTGSGYGTVFTFTISTVQADDLAVYFCQQDYTSPWTFGGGTRLEIK
notes: chimeric mAb

Columns and labels:
human 5T4-His protein [1] = molecular target: T1, human 5T4-His protein (human, UniProt Q13641 32-355); assay: ELISA, coated antigen
T1 construct: also called recombinant 5T4 protein (human 5T4-his tag); human 5T4 protein; not shown: His tag
T1 sequence (looked up): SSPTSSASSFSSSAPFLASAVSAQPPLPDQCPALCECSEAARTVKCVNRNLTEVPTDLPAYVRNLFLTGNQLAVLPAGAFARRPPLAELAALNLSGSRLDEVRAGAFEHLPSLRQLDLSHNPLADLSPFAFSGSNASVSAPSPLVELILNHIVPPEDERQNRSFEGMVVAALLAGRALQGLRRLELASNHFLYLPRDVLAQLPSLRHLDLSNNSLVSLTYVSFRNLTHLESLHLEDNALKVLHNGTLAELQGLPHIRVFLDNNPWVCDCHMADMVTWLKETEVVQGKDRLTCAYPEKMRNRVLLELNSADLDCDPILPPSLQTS

cynomolgus 5T4 protein = molecular target: T2, cynomolgus 5T4 protein (cynomolgus monkey, UniProt Q4R8Y9 35-355, limits assumed); assay: ELISA, coated antigen
T2 construct: Coated protein in ELISA; the screening step names a cyno 5T4-His protein; also called cyno 5T4; recombinant cyno 5T4-His protein
T2 sequence (looked up): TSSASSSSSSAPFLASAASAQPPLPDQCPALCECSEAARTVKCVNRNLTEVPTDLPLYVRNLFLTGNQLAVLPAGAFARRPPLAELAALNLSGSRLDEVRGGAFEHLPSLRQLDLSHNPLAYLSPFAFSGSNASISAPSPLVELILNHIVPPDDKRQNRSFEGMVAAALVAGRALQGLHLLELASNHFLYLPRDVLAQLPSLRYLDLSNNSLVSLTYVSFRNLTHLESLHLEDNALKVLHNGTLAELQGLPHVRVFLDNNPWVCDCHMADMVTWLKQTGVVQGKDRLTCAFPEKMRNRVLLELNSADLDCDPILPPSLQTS

human 5T4-His protein [2] = molecular target: T1, human 5T4-His protein; assay: ELISA, coated 5T4-His
Experimental: To evaluate the binding activity of 159D5 humanized antibodies to human 5T4, the 159D5 chimeric antibody along with 159D5 humanized mAbs were subjected to ELISA test.
Briefly, microtiter plates were coated with human 5T4-His protein at 1 μg/ml in PBS, 100 μl/well at 4° C. overnight, then blocked with 150 μl/well of 10% BSA. Serial dilutions of antibodies were added to each well and incubated for 1 hour at 37° C. The plates were washed with PBS/Tween and then incubated with Goat Anti-Human IgG-HRP for 30 mins at 37° C. After washing, the plates were developed with TMB substrate and analyzed by spectrophotometer at OD 450 nm. As shown in FIG. 14 and Table 12, most of the humanized antibodies bound to human 5T4 with high activity.

human 5T4-His protein [3] = molecular target: T1, human 5T4-His protein; assay: SPR Biacore, Protein A capture
Method in brief: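 Antibodies captured on a Protein A chip on Biacore T200; serial dilutions of His-tagged human 5T4 injected 2-3 min at 30 μl/min, dissociation 360-1000 s.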

human 5T4-His protein [4] = molecular target: T1, human 5T4-His protein; assay: SPR Biacore, Protein A capture, 50 nM 5T4-His
Experimental: The binding of the 159D5 humanized antibodies to recombinant 5T4 protein (human 5T4-his tag) was tested with Biacore using a capture method. The mAbs were captured using Protein A chip. 50 nM of human 5T4-his tag protein was injected over captured antibody for 3 mins at a flow rate of 30 μl/min. The antigen was allowed to dissociate for 600 s. All the experiments were carried out on a Biacore T200. Data analysis was carried out using the Biacore T200 evaluation software.

human 5T4-His protein [5] = molecular target: T1, human 5T4-His protein; assay: competitive ELISA, coated human 5T4, vs 159D5-biotin
human 5T4-His protein [6] = molecular target: T1, human 5T4-His protein; assay: as above; remark: listed apart in the source
human 5T4-His protein [7] = molecular target: T1, human 5T4-His protein; assay: as above; remark: listed apart in the source
human 5T4-His protein [8] = molecular target: T1, human 5T4-His protein; assay: competitive ELISA, coated human 5T4, vs 267B5-biotin
human 5T4-His protein [9] = molecular target: T1, human 5T4-His protein; assay: as above; remark: listed apart in the source

Binder	EC50 (human 5T4-His protein [1])	EC50 (cynomolgus 5T4 protein)	EC50 (human 5T4-His protein [2]) [pM]	Kd (human 5T4-His protein [3]) [pM]	koff (human 5T4-His protein [3]) [s⁻¹]	kon (human 5T4-His protein [3]) [M⁻¹ s⁻¹]	Kd (human 5T4-His protein [4]) [pM]	koff (human 5T4-His protein [4]) [s⁻¹]	kon (human 5T4-His protein [4]) [M⁻¹ s⁻¹]	IC50 (read off the curve) (human 5T4-His protein [5]) [pM]	IC50 (read off the curve) (human 5T4-His protein [6]) [pM]	IC50 (read off the curve) (human 5T4-His protein [7]) [pM]	IC50 (read off the curve) (human 5T4-His protein [8]) [pM]	IC50 (read off the curve) (human 5T4-His protein [9]) [pM]
B1	240 pM and 200 pM and 390 pM	180 pM and 190 pM and 200 pM and 110 pM	130	206	0.00024	1.16e+06	618	0.000204	330000	~5000	~5000	~4000		
B2	310 pM	170 pM		1620	0.000255	158000							~10000	~5000
